B1: [^125I]HGF(11-83)-NH2 (73 aa): labeled product prepared through directly introducing 125I into HGF(11-83)-NH2 (73 aa) (peptide)
peptide: FKKSAKTTLIKIDPALKIKTKKVNTADQCANRCTRNKGLPFTCKAFVFDKARKQCLWFPFNSMSSGVKKEFGH

Tests used:
[1] = Heparin-binding activity by heparin affinity column HPLC; conditions: for NaCl concentration at elution from heparin column: TSK-gel Heparin-5PW, linear gradient 0 to 2M NaCl, pH 7.5, room temperature
Procedure: The heparin-binding activity of [^125I]HGF(11-83)-NH2 (73 aa) produced in Example 1 was determined with high-performance liquid chromatography employing a heparin column. hrHGF (PEPTIDE INSTITUTE, INC.), having a high heparin-binding activity, was used as a positive control.
<High-Performance Liquid Chromatography Conditions>
Column: TSK-gel Heparin-5PW (0.75×7.5 cm): product of TOHSO
solution A: 10 mM Na phosphate buffer (pH 7.5);
solution B: 10 mM Na phosphate buffer (pH 7.5)+2M NaCl;
0 min to 3 min: solution A 100%
3 min to 30 min: linear gradient solution B 0% to 100%
Temperature: room temperature (about 25° C.)

[2] = system: HGF receptor expression site (infarct border zone); test: Pinhole-SPECT imaging in myocardial ischemia model rats; format: in vivo, Wistar rats; conditions: 90 MBq left femoral vein
Procedure: Wistar rats (8-week-old) were anesthetized with isoflurane (Forane (R), Abbott). After tracheostomy, an artificial respirator connected to an anesthetizer was attached to each rat. The left chest was opened, and an electrogardiogram was measured before coronary ligation. The coronary artery and its peripheral tissue were ligated with suture. During ligation, nylon filament was placed as a spacer between the coronary artery and the suture in order to weaken the ligation strength so as not to completely intercept the blood flow. Ischemic state was determined on the basis of ST rise and recorded by an electrocardiogram. After recording, the left chest was closed, and the trachea and the skin were sutured.
Under inhalation anesthesia with isoflurane, ^99mTc-MIBI (90 MBq) was injected into the left femoral vein of each myocardial ischemia model rat. Subsequently, [^123I]HGF(11-83)-NH2 (73 aa) (100 MBq) prepared in a manner similar to that of Example 2 was administered through the right femoral vein. Thirty minutes after the administration, pinhole-SPECT imaging was conducted using a gamma camera (PRISM 2000, Shimadzu Corporation) (Imaging conditions: pinhole collimator, matrix sizes: 256×256, Mag 1.0, energy windows ^99mTc: 140 keV 10% and ^123I: 159 keV 10%, 3° 60 sec/step). […]

[3] = system: HGF receptor expression site (infarct border zone); test: Dual nuclide autoradiography in myocardial ischemia model rats; format: in vivo, CD(SD) IGS rats; conditions: 60 MBq femoral vein
Procedure: CD(SD) IGS rats (10-week-old) were anesthetized by intraperitoneally administering pentobarbital Na (35 mg/kg). After tracheostomy, an artificial respirator was attached to the rat. The left chest was opened, and an electrocardiogram was measured before coronary ligation. The coronary artery and its peripheral tissue (surrounding several millimeters) were ligated with suture, and ischemic state was determined on the basis of ST rise and recorded by an electrocardiogram. After recording, the chest was closed, and the trachea and the skin were sutured.
Three days after production of the myocardial ischemia model, a blood flow imaging agent ^99mTc-MIBI (Cardiolight Injection; DAIICHI RADIOISOTOPE LABS., LTD.) and [^125I]HGF(11-83)-NH2 (73 aa) were administered to each model rat. Blood flow was assessed through dual nuclide autoradiography and HE staining. ^99mTc-MIBI was administered at 60 MBq through a femoral vein. […] On the day of the experiment, the sample was affixed to an imaging plate for 30 minutes, and a ^99mTc-MIBI accumulation image was recorded by means of a bio-imaging analyzer BAS-1800 (FIG. 9). After 7-days attenuation period for ^99mTc for seven days, the sample was set again to the imaging plate for seven days, and a [^125I]HGF(11-83)-NH2 (73 aa) accumulation image was recorded by means of a bio-imaging analyzer BAS-1800 (FIG. 10).

[4] = target: T1, HGF receptor of HuCCT1 cells (Homo sapiens, UniProt P08581); test: Binding assay on HuCCT-1 cells with inhibition by hrHGF
T1 construct: c-Met-expressing HuCCT-1 cells (human-origin cholangiocarcinoma cells); endogenous in cells; host or cells: HuCCT-1 (human cholangiocarcinoma cells)
T1 sequence (P08581 25-307 limits assumed): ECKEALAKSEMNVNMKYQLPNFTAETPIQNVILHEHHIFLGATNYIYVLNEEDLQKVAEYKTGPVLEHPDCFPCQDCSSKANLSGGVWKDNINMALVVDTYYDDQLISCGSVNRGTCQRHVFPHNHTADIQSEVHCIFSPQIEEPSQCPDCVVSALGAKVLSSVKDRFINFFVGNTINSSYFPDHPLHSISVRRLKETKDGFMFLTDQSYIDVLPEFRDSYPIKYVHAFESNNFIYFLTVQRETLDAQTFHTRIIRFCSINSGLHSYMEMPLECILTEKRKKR
T1 sequence (P08581 308-1390 limits assumed): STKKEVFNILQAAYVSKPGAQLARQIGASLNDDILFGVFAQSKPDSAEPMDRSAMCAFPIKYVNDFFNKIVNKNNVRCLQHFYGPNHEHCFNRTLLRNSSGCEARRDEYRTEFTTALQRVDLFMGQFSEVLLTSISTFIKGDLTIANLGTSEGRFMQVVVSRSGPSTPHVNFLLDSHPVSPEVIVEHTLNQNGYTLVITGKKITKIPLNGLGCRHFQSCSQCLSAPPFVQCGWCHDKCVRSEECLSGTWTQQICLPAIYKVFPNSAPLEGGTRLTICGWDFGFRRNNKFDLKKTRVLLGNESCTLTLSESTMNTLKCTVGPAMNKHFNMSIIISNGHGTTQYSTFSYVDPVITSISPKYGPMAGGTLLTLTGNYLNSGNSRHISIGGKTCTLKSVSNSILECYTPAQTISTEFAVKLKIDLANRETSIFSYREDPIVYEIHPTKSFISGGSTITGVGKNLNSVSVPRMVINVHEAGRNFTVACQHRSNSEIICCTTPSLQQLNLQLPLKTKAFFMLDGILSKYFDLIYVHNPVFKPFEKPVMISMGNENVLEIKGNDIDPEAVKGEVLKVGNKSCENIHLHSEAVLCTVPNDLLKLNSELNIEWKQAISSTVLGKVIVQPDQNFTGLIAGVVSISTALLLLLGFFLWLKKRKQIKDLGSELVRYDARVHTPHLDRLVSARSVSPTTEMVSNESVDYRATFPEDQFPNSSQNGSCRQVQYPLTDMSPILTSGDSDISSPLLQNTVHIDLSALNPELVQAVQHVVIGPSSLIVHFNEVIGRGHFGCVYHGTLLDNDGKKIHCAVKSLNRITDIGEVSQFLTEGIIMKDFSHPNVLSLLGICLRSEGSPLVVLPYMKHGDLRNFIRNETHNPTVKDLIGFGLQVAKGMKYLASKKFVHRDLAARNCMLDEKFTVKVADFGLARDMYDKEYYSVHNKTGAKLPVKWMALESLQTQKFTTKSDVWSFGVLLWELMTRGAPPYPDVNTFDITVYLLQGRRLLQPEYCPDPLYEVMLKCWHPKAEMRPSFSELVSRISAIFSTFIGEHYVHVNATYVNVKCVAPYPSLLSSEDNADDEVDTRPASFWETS
Procedure: Inhibition of binding of [^125I]HGF(11-83)-NH2 (73 aa) to c-Met-expressing HuCCT-1 cells (human-origin cholangiocarcinoma cells) by human recombinant HGF (hrHGF) was determined by the binding assay.
Specifically, a suspension of HuCCT-1 cells (100 μL, (1.5×10^5 cells)) prepared for a binding inhibition test was placed in an Eppendorf tube whose inner surface had been coated with bovine serum albumin (BSA), and a solution of hrHGF (PEPTIDE INSTITUTE, INC.) (50 μL, final concentration: 379 nM) was added to the tube. A negative control was prepared by adding a binding buffer (0.2% BSA, 20 mM HEPES Hanks' solution, pH 7.0) (50 μL) instead of the rhHGF solution. To the samples, 0.758 nM [^125I]HGF(11-83)-NH2 (73 aa) solution (50 μL) (final concentration: 0.190 nM, ratio by amount to hrHGF: 1:2,000) was added. Each Eppendorf tube containing HuCCT-1 cells was stirred and incubated at room temperature for one hour, followed by centrifuged at 4° C. (3,000 rpm, 3 min) to precipitate the cells. The supernatant was removed by means of an aspirator. The cells were stirred with an ice-cooled binding buffer (500 μL), and the mixture was centrifuged (3,000 rpm, 3 min). The procedure was repeated thrice. The radioactivity of the Eppendorf tube containing HuCCT-1 cells was measured by means of a gamma counter. The average and the standard deviation of the radioactivity (cpm) were calculated for the samples to which the hrHGF solution had been added (hrHGF(+)) and for the samples to which the binding buffer had been added (hrHGF(−)). The difference between the averages was assessed through the Student's t-test.

[5] = system: c-Met-expressed McA-RH7777 cells (rat-origin liver cancer cells) tumor; test: Accumulation in c-Met expressing tumor of implanted mice, autoradiography; format: in vivo, nude mice (BALB/c nu/nu); conditions: compared with anti-c-Met antibody (SP-260) immunohistochemical staining of serial sections
Procedure: c-Met-specific accumulation of [^125I]HGF(11-83)-NH2 (73 aa) in a tumor was observed by autoradiography and immunohistostaining in mice subcutaneously implanted c-Met expressing cancer cells.
3. Observation of c-Met-Specific Accumulation of [^125I]HGF(11-83)-NH2 (73 aa) in a Tumor of Mice Subcutaneously Implanted c-Met Expressing Cancer Cells by Autoradiography and Immunohistostaining
A suspension of c-Met-expressed McA-RH7777 cells (rat-origin liver cancer cells) (200 μL, 2.0×10^6 cells) was subcutaneously injected to a right hindlimb of 6-week-old nude mice (BALB/c nu/nu: Japan SLC, Inc.). On day 9 (tumor volume: […] (McA-RH7777 cells)), the aforementioned labeled HGF-fragment (370 kBq/100 μL) was intravenously administered to each mouse. The tumor was isolated with muscles surrounding the tumor 15 minutes after administration, and frozen sections were prepared. Each frozen section was affixed to an imaging plate (Fuji Photo Film Co., Ltd) for seven days, and a [^125I]HGF(11-83)-NH2 (73 aa) accumulation image was observed by means of a bio-imaging analyzer BAS-1800 (Fuji Photo Film Co., Ltd) (FIG. 5). […] Serial frozen sections were subjected to hematoxylin-eosin (HE) staining (FIG. 6) and immunohistochemical staining with anti-c-Met antibody (SP-260) (FIG. 7).

| Molecule | NaCl concentration at elution from heparin column [1] | Accumulation at the infarct border zone (pinhole-SPECT) [2] | Accumulation at the infarct border zone (autoradiography) [3] | Portion of the sample with strong heparin-binding activity ([1]; from the peak area ratios) | Area ratio of the heparin-binding peak ([1]; peak at 20.3 min, other peaks are free 125I and decomposed or denatured peptide) | Radioactivity bound to HuCCT1 cells, hrHGF(+) samples ([4]; 0.190 nM labeled peptide with 379 nM hrHGF, room temperature, one hour, mean±SD) | Radioactivity bound to HuCCT1 cells, hrHGF(−) samples ([4]; 0.190 nM labeled peptide, room temperature, one hour, mean±SD) | Reduction of binding to the cells by addition of hrHGF ([4]; hrHGF 379 nM, 2,000-fold mole concentration, P=0.040) | Specificity of accumulation in tumor [5] |
| --- | --- | --- | --- | --- | --- | --- | --- | --- | --- |
| hrHGF: human recombinant HGF (PEPTIDE INSTITUTE, INC.), positive control with high heparin-binding activity [reference compound] | about 1.5 M |  |  |  |  |  |  |  |  |
| [99Tc].[C-]#[N+]CC(C)(C)OC.[C-]#[N+]CC(C)(C)OC.[C-]#[N+]CC(C)(C)OC.[C-]#[N+]CC(C)(C)OC.[C-]#[N+]CC(C)(C)OC.[C-]#[N+]CC(C)(C)OC [^99mTc-MIBI] |  | reduced accumulation | reduced accumulation |  |  |  |  |  |  |
| B1 | about 1.3 M |  |  | about 80% | 78.1% | 20916.9±1574.2 cpm | 26136.2±2580.8 cpm | 20% | c-Met-specific |
